From article PMC9663175, “Cryo-EM structures reveal the activation and substrate recognition mechanism of human enteropeptidase” (Nature Communications, 2022) come the findings set out here.

The target of this experiment is T1, hEP heavy chain (residues 182-784 of human enteropeptidase, after trypsin activation) (human, UniProt P98073 182-784, N-linked glycans).
T1 construct: human enteropeptidase heavy chain of the 182-1019 construct (LDLR, CUB, MAM, CUB2, LDLR2, SRCR domains); C-terminal limit 784 follows from Ile785 as the new N-terminus of the light chain; Stays linked to the light chain by the disulfide Cys772-Cys896; source: HEK293F, transfected, secreted, purified from supernatant (Ni-NTA) as the 182-1019 zymogen, then cleaved with trypsin
T1 sequence (looked up): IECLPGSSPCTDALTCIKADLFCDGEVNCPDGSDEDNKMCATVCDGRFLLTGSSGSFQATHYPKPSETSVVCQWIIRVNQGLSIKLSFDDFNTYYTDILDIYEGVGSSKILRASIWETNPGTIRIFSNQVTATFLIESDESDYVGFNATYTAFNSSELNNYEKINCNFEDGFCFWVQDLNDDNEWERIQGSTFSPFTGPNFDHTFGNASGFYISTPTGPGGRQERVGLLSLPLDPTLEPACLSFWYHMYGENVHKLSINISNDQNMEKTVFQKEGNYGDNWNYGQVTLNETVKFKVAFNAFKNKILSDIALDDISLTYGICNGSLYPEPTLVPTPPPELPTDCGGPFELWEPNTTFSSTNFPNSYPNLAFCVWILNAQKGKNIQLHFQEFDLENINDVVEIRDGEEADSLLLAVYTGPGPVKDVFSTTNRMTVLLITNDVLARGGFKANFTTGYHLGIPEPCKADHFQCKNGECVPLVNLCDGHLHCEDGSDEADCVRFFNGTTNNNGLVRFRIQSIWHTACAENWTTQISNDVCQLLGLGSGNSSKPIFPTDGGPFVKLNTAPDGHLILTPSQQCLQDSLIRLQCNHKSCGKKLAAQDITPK
The experiment is described as follows: cryo-EM structure; trypsin-activated two-chain hEP (residues 182-1019), heavy and light chains linked by a disulfide; wild type, catalytic-triad mutant, or wild type incubated with nafamostat. Conditions: both partners purified.

Where a chain is given by its changes, count along the chain named. Names and notes keep the numbering of the source.

B1: hEP light chain (peptidase domain, residues 785-1019), wild type (domain or fragment, human, UniProt P98073 785-1019, looked up)
chain: IVGGSNAKEGAWPWVVGLYYGGRLLCGASLVSSDWLVSAAHCVYGRNLEPSKWTAILGLHMKSNLTSPQTVPRLIDEIVINPHYNRRRKDNDIAMMHLEFKVNYTDYIQPICLPEENQVFPPGRNCSIAGWGTVVYQGTTANILQEADVPLLSNERCQQQMPEYNITENMICAGYEEGGIDSCQGDSGGPLMCQENNRWFLAGVTSFGYKCALPNRPGVYARVSRFTEWIQSFLH
modifications: N-linked glycans
notes: human enteropeptidase light chain, N-terminus Ile785 (IVGG) after trypsin cleavage; Stays linked to the heavy chain by the disulfide Cys772-Cys896; source: HEK293F, transfected, secreted, purified from supernatant (Ni-NTA) as the 182-1019 zymogen, then cleaved with trypsin
Regarding B1, the binding result was “binds”.

B2: hEP light chain (residues 785-1019) inhibited by nafamostat (domain or fragment, human, UniProt P98073 785-1019, looked up)
chain: B1 chain
modifications: Ser971 covalently bound to the reaction product of nafamostat; N-linked glycans
notes: human enteropeptidase light chain, N-terminus Ile785 after trypsin cleavage; Stays linked to the heavy chain by the disulfide Cys772-Cys896
On to B2, for which the binding result is reported as “binds”.

B3: hEP^mut light chain (peptidase domain, residues 785-1019, H825A, D876A, S971A) (domain or fragment, human, UniProt P98073 785-1019, looked up)
chain: B1 chain with H41A, D92A, S187A
modifications: N-linked glycans
notes: human enteropeptidase light chain, N-terminus Ile785 after trypsin cleavage, catalytic triad mutated to Ala; The light chain of m1; also called light chain of hEP^mut
Regarding B3, the binding result is listed as “binds”.
